Laboratory results: paper PMC5101189, “Structure of the MIS12 Complex and Molecular Basis of Its Interaction with CENP-C at Human Kinetochores” (Cell, 2016)

Target: T1, NSL1, full length (subunit of the full-length MIS12C in the KMN assembly) (human, UniProt Q96IY1 1-281)
T1 sequence (looked up): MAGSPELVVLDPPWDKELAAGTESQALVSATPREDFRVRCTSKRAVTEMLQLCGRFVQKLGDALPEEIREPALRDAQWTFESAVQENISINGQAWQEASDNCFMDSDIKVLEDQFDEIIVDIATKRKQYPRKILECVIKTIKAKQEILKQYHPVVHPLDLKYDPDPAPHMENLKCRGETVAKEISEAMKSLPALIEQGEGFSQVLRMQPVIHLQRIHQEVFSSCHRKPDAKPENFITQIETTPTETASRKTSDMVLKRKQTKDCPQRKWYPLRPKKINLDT
Experiment: cross-linking; 10-subunit KMN assembly with a CENP-C fragment, 45 μg at 1 mg/ml, 650 μM BS3 (d0/d12), 30 min at 37°C; trypsin or AspN digest, tandem mass spectrometry (xQuest)
Conditions: both partners purified

B1: ZWINT (natural protein, human, UniProt O95229 1-277, looked up)
chain: MEAAETEAEAAALEVLAEVAGILEPVGLQEEAELPAKILVEFVVDSQKKDKLLCSQLQVADFLQNILAQEDTAKGLDPLASEDTSRQKAIAAKEQWKELKATYREHVEAIKIGLTKALTQMEEAQRKRTQLREAFEQLQAKKQMAMEKRRAVQNQWQLQQEKHLQHLAEVSAEVRERKTGTQQELDRVFQKLGNLKQQAEQERDKLQRYQTFLQLLYTLQGKLLFPEAEAEAENLPDDKPQQPTRPQEQSTGDTMGRDPGVSFKAVGLQPAGDVNLP
notes: ZWINT, human, subunit of KNL1C in the cross-linked 10-subunit KMN assembly; also called Zwint1
binding result: binds
